T1: mouse Sema 3A protein (mouse, UniProt O08665 21-772, limits assumed)
T1 construct: Produced from mouse Sema 3A protein expressing cells; also called Mouse Sema 3A antigen
T1 sequence (looked up): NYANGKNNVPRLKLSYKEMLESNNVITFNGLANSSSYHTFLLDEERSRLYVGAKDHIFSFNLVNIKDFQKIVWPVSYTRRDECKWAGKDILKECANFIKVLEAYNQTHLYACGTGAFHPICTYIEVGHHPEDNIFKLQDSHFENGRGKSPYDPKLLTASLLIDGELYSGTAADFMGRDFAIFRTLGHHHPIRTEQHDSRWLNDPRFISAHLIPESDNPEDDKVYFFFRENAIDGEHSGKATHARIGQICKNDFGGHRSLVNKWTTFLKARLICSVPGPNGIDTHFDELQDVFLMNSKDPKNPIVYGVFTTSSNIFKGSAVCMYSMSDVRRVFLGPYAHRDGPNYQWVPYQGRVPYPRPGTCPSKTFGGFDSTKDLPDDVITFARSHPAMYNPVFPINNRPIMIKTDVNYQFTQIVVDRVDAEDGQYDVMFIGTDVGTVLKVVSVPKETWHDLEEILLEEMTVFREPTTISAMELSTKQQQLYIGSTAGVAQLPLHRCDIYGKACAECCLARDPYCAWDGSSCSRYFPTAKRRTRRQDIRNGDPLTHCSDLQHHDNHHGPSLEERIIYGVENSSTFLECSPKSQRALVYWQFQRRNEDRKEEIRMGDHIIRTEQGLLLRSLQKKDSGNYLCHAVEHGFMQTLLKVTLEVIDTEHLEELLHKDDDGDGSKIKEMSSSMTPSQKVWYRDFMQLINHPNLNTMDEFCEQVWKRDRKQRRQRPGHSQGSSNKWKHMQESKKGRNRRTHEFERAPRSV


Target: T1, mouse Sema 3A protein
Test: direct solid phase ELISA screening with mouse Sema 3A as antigen
Procedure: A direct solid phase ELISA was carried out according to the following process. In Day 6 after the step 2-2), 2.5 μg/mL of mouse Sema 3A protein was dispensed into a 384 well Maxisorp (Nunc) by 20 μL each and left to stand overnight. Ovalbumin (OA) and rabbit IgG (rIgG) were immobilized in the plate as negative controls in similar manner in order to examine the specificity of antibodies. On the next day, the content in the plate was removed and 45 μL of blocking solution (PBS buffer containing 1% BSA) was added thereto, followed by incubation at room temperature for one hour. The plate was washed five times with 120μL/well of ELISA washing buffer (PBS containing 0.05 wt % Tween 20), to which were added culture supernatants derived from the colony obtained by selection in the step 2-2) by 25 μL/well and then incubated at room temperature for one hour. The plate was washed five times with 120 μL/well of ELISA washing solution and then to which was added 25 μL of diluent in which a secondary antibody was diluted 2000 times with a blocking buffer and incubated at room temperature for 45 minutes. Anti-chicken IgM-HRP (Bethyl Laboratories, Inc.) was used as a secondary antibody. […] Subsequently, the reaction was quenched with 25 μL of 1N sulfuric acid to determine the absorbance at 450 nm.

Binder | binding result
Anti-Sema 3A avian antibody (clone No. 240-40 strain-derived) (antibody, V domains shown, Avian (chicken) IgM) VH: AVTLDESGGGLQTPGGALSLVCKASGFTFSSYDMNWVRQAPGKGLEWVAGIYSGSSTYYGAAVKGRATISRDNGQSTLRLQLNNLRAEDTGIYYCAKSAIPVNSAGSIDAWGHGTEVIVSS VL: ALTQPASVSANPGETVKITCSGGGSYGGSYYYSWHQQKSPGSALVTVIYYNNKRPSDIPSRFSGSLSGSTNTLTITGVRADDEAVYFCGSADTSGTAFGAGTTLTVL | binds
Anti-Sema 3A avian antibody (clone No. 255-72 strain-derived) (antibody, V domains shown, Avian (chicken) IgM) VH: AVTLDESGGGLQTPGGALSLVCKASGFTFSSYEMQWVRQAPGKGLEWVAGIYSGSTWYGAAVKGRATISRDNGQSTVRLQLNNLRAEDTGTYYCAKSGIGFNSAGSIDAWGHGTEVIVSS VL: ALTQPASVSANPGETVKITCSGGGSYGGSYYYSWHQQKSPGSALVTVIYYNNKRPSDIPSRFSGSLSGSTNTLTITGVRADDEAVYFCGSADNSGSAFGAGTTLTVL | binds

From US20150368327A1 (YOKOHAMA CITY UNIVERSITY, published 2015)
